This is an account of results in paper PMC3726423.

The target of data set [1] is T1, L7Ae (Pyrococcus abyssi, UniProt P62008 1-123). The data set can be described thus: footprinting (Pb2+); K-loop KTa/KTb protected; A34-U35 enhanced; EMSA: 150 mM KCl, 1.5 mM MgCl2, 0.2 mM EDTA, 20 mM HEPES pH 7.9, 65 C 10 min, 50 fmol sRNA, 200 nM proteins (Kd: 50-400 nM aCBF5); fluorescence: 300 mM NaCl, 25.
Data set [2] concerns the target T1, L7Ae. The data set can be described thus: footprinting (Pb2+); K-loop KTa/KTb protected; EMSA: 150 mM KCl, 1.5 mM MgCl2, 0.2 mM EDTA, 20 mM HEPES pH 7.9, 65 C 10 min, 50 fmol sRNA, 200 nM proteins (Kd: 50-400 nM aCBF5); fluorescence: 300 mM NaCl, 25. On the technique in general: Mobility shift assays separate free from complexed probe on a gel.

B1: Pab21 H/ACA sRNA (structured_RNA)
RNA: GGGGAUGGGCCCGGCUCCCGCCCUCUCCGGGGAAUCGUGAACCGGGGGUUCCGGCCGGGCCUACAGU
As to B1, the binding result in the data set with L7Ae [1] is “binds”.

B2: Pab91 H/ACA sRNA (structured_RNA)
RNA: GGGUAAUGCCCCUCCCCUCUCACACCUCCGGGAUCAGUGACCGGAGGGCGGUCGGGGAGGGGACACCU
For B2, the binding result in the data set with L7Ae [2] is listed as “binds”.
